# Publication PMC4624332 (Cell, 2015)
# Experiments:
# [1] = biological target: Tse6_(265-CT) (P. aeruginosa) (UniProt Q9I739); assay: ITC
# [2] = biological target: EF-Tu^PA•GDP (P. aeruginosa EF-Tu, GDP-bound), purified (P. aeruginosa, UniProt P09591 1-397); assay: ITC
# [3] = biological target: EF-Tu^EC•GDP (E. coli EF-Tu, GDP-bound), purified for ITC (E. coli, UniProt P0CE47 2-393); assay: ITC
# [4] = biological target: C-terminally octa-histidine-tagged Tse6 (full-length toxin) (P. aeruginosa, UniProt Q9I739 1-430); assay: negative-stain electron microscopy
# Chain of EF-Tu^PA•GDP (P. aeruginosa EF-Tu, GDP-bound), purified (P09591 whole entry): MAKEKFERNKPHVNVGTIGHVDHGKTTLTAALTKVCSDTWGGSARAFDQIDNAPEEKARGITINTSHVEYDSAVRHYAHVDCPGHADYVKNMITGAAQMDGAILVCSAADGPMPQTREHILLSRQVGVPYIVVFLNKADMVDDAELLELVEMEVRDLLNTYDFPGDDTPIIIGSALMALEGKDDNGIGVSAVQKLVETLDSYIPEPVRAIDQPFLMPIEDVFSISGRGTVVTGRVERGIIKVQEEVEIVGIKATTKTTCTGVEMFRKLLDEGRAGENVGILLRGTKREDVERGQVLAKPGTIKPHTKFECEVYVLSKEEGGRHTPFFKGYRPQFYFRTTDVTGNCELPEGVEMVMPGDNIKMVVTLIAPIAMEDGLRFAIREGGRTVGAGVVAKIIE
# Chain of EF-Tu with the antibiotic Aurodox (locked into its GTP-bound conformation) (P09591 whole entry): as above
# Chain of EF-Tu^EC•GDP (E. coli EF-Tu, GDP-bound), purified for ITC (P0CE47 2-393): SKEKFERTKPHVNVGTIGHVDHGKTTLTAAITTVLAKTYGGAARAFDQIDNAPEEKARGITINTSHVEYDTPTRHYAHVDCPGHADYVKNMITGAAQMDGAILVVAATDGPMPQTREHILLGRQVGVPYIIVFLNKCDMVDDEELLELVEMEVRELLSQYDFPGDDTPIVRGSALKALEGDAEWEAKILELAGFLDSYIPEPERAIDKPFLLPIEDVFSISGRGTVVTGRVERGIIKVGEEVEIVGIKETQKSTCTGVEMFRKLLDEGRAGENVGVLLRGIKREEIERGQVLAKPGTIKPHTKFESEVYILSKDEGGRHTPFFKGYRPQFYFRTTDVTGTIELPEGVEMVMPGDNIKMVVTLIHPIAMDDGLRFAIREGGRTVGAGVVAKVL
molecule,measurement,setting,value
EF-Tu with the antibiotic Aurodox (locked into its GTP-bound conformation) (from UniProt P09591 1-397) (natural protein),fold reduction of the affinity with Aurodox against EF-Tu•GDP,[1],10 fold
Tse6_(265-CT) (domain or fragment) QRRAYLNNKFGRSGNLDHDINYRGNRETAAKFFKSKDIDPADAESYMNGLDFNHPVRVETLAPGKNLWQYQSPGAPQGNWYTLSPRVQPTELGINPMGTNRAANTIEPKVLNSYRTTQKVEVLRSTAAPTDDFWSVKGQSYPAKGGAQQLFSNEKGSFGLLPREGS,Kd,[2],23 nM
same,Kd,[3],81 nM
"EagT6, recombinant, in the purified Tse6 complex (natural protein) MTLYRLHEADLEIPDAWQDQSINIFKLPASGPAREASFVISRDASQGDAPFADYVARQLENAEKQLPGFKLHKRWDINIHGHAAVLLDYQWQREGRDLMLRQVFIERRPAVLITTLTTTPADLPHHEPAWKQAMQTLVPRPTPS",binding result,[4],binds
